Data from US20260209386A1 (MYTHIC THERAPEUTICS, published 2026).

molecular target: T1, Human PTK7/CCK4 Protein, His Tag, Acro Biosystems PT7-H52H3 (human, UniProt Q13308 31-704); test: BLI, antibody on anti-human Fc sensor
T1 construct: bought protein; also called Human PTK7 Protein, His Tag, Acro Biosystems; not shown: His tag
T1 sequence: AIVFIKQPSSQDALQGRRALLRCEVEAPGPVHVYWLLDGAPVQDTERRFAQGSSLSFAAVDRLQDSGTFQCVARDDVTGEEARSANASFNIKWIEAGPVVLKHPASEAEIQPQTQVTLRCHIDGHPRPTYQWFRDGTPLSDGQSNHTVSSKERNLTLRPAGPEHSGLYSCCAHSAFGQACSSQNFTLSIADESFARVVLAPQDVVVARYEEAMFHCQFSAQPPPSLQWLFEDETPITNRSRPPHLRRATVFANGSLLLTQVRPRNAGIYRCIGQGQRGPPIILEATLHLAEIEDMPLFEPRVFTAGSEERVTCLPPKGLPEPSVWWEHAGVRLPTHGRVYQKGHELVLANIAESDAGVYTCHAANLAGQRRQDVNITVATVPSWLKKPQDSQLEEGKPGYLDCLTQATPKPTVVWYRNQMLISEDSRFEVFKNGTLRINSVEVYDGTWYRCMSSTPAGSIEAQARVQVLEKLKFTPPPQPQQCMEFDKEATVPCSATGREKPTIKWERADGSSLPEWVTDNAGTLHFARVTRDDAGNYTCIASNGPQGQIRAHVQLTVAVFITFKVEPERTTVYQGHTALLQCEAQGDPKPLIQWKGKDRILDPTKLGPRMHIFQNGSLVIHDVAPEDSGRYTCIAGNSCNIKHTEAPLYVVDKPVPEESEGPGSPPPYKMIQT

Binder	binding result
MYT6162 (antibody, V domains shown, IgG) VH: QVQLVQSGPEVKKPGASVKVSCKASGYTFTDYHVHWVRQAPGKRLEWIGVISTYNDYTYNNQDFKGRVTMTRDTSASTAYMELSRLRSEDTAVYYCARGNSYFYALDYWGQGTSVTVSS VL: EIVLTQSPATLSLSPGERATLSCRASESVDSYGKSFMHWYQQKPGQAPRLLIYRASNLESGIPARFSGSGSGTDFTLTISSLEPEDFAVYYCQQSNEDPWTFGGGTKLEIK	no binding (tested: 50 nM PTK7)
MYT6206 (antibody, V domains shown, IgG) VH: QVQLVQSGPEVKKPGASVKVSCKASGYTFTDYAVHWVRQAPGKRLEWIGVISTYNDYTYNNQDFKGRVTMTRDTSASTAYMELSRLRSEDTAVYYCARGNSYFYALDYWGQGTSVTVSS VL: EIVLTQSPATLSLSPGERATLSCRASESVDSYGKSHMHWYQQKPGQAPRLLIYRASNLESGIPARFSGSGSGTDFTLTISSLEPEDFAVYYCQQSNEDPWTFGGGTKLEIK	no binding (tested: 50 nM PTK7)
MYT6210 (antibody, V domains shown, IgG) VH: QVQLVQSGPEVKKPGASVKVSCKASGYTFTDYAVHWVRQAPGKRLEWIGVISTYNDYTYNNQDFKGRVTMTRDTSASTAYMELSRLRSEDTAVYYCARGNSYFYALDYWGQGTSVTVSS VL: EIVLTQSPATLSLSPGERATLSCRASESVDSYGKSFMHWYQQKPGQAPRLLIYRHSNLESGIPARFSGSGSGTDFTLTISSLEPEDFAVYYCQQSNEDPWTFGGGTKLEIK	no binding (tested: 50 nM PTK7)
MYT6218 (antibody, V domains shown, IgG) VH: QVQLVQSGPEVKKPGASVKVSCKASGYTFTDYAVHWVRQAPGKRLEWIGVISTYNDYTYNNQDFKGRVTMTRDTSASTAYMELSRLRSEDTAVYYCARGNSYFYALDYWGQGTSVTVSS VL: EIVLTQSPATLSLSPGERATLSCRASESVDSYGKSFMHWYQQKPGQAPRLLIYRASNLESGIPARFSGSGSGTDFTLTISSLEPEDFAVYYCQQHNEDPWTFGGGTKLEIK	no binding (tested: 50 nM PTK7)
MYT6184 (antibody, V domains shown, IgG) VH: QVQLVQSGPEVKKPGASVKVSCKASGYTFTDYAVHWVRQAPGKRLEWIGVISTYNDYTYNNQDFKGRVTMTRDTSASTAYMELSRLRSEDTAVYYCARHNSYFYALDYWGQGTSVTVSS VL: EIVLTQSPATLSLSPGERATLSCRASESVDSYGKSFMHWYQQKPGQAPRLLIYRASNLESGIPARFSGSGSGTDFTLTISSLEPEDFAVYYCQQSNEDPWTFGGGTKLEIK	no binding (tested: 50 nM PTK7)
MYT6221 (antibody, V domains shown, IgG) VH: QVQLVQSGPEVKKPGASVKVSCKASGYTFTDYAVHWVRQAPGKRLEWIGVISTYNDYTYNNQDFKGRVTMTRDTSASTAYMELSRLRSEDTAVYYCARGNSYFYALDYWGQGTSVTVSS VL: EIVLTQSPATLSLSPGERATLSCRASESVDSYGKSFMHWYQQKPGQAPRLLIYRASNLESGIPARFSGSGSGTDFTLTISSLEPEDFAVYYCQQSNEHPWTFGGGTKLEIK	no binding (tested: 50 nM PTK7)
MYT6186 (antibody, V domains shown, IgG) VH: QVQLVQSGPEVKKPGASVKVSCKASGYTFTDYAVHWVRQAPGKRLEWIGVISTYNDYTYNNQDFKGRVTMTRDTSASTAYMELSRLRSEDTAVYYCARGNHYFYALDYWGQGTSVTVSS VL: EIVLTQSPATLSLSPGERATLSCRASESVDSYGKSFMHWYQQKPGQAPRLLIYRASNLESGIPARFSGSGSGTDFTLTISSLEPEDFAVYYCQQSNEDPWTFGGGTKLEIK	no binding (tested: 50 nM PTK7)
MYT6165 (antibody, V domains shown, IgG) VH: QVQLVQSGPEVKKPGASVKVSCKASGYTFTDYAVHWVRQAPGKRLEWIGHISTYNDYTYNNQDFKGRVTMTRDTSASTAYMELSRLRSEDTAVYYCARGNSYFYALDYWGQGTSVTVSS VL: EIVLTQSPATLSLSPGERATLSCRASESVDSYGKSFMHWYQQKPGQAPRLLIYRASNLESGIPARFSGSGSGTDFTLTISSLEPEDFAVYYCQQSNEDPWTFGGGTKLEIK	no binding (tested: 50 nM PTK7)
MYT6190 (antibody, V domains shown, IgG) VH: QVQLVQSGPEVKKPGASVKVSCKASGYTFTDYAVHWVRQAPGKRLEWIGVISTYNDYTYNNQDFKGRVTMTRDTSASTAYMELSRLRSEDTAVYYCARGNSYFYHLDYWGQGTSVTVSS VL: EIVLTQSPATLSLSPGERATLSCRASESVDSYGKSFMHWYQQKPGQAPRLLIYRASNLESGIPARFSGSGSGTDFTLTISSLEPEDFAVYYCQQSNEDPWTFGGGTKLEIK	no binding (tested: 50 nM PTK7)
MYT6209 (antibody, V domains shown, IgG) VH: QVQLVQSGPEVKKPGASVKVSCKASGYTFTDYAVHWVRQAPGKRLEWIGVISTYNDYTYNNQDFKGRVTMTRDTSASTAYMELSRLRSEDTAVYYCARGNSYFYALDYWGQGTSVTVSS VL: EIVLTQSPATLSLSPGERATLSCRASESVDSYGKSFMHWYQQKPGQAPRLLIYHASNLESGIPARFSGSGSGTDFTLTISSLEPEDFAVYYCQQSNEDPWTFGGGTKLEIK	no binding (tested: 50 nM PTK7)
MYT6231 (antibody, V domains shown, IgG) VH: QVQLVESGGGVVQPGRSLRLSCAASGFTFSSHGMHWVRQAPGKGLEWVAVIWDDGSNKYYVDSVKGRFTISRDNSKNTLYLQMNSLRAEDTAVYYCARDDYYGSGSFNSYYGTDVWGQGTTVTVSS VL: EIVLTQSPATLSLSPGERATLSCRASQSVSIYLAWYQQKPGQAPRLLIYDASNRATGIPARFSGSGSGTDFTLTISSLEPEDFAVYYCQQRSNWPPFTFGPGTKVDIK	no binding (tested: 50 nM PTK7)
MYT6232 (antibody, V domains shown, IgG) VH: QVQLVESGGGVVQPGRSLRLSCAASGFTFSSYHMHWVRQAPGKGLEWVAVIWDDGSNKYYVDSVKGRFTISRDNSKNTLYLQMNSLRAEDTAVYYCARDDYYGSGSFNSYYGTDVWGQGTTVTVSS VL: EIVLTQSPATLSLSPGERATLSCRASQSVSIYLAWYQQKPGQAPRLLIYDASNRATGIPARFSGSGSGTDFTLTISSLEPEDFAVYYCQQRSNWPPFTFGPGTKVDIK	no binding (tested: 50 nM PTK7)
MYT6253 (antibody, V domains shown, IgG) VH: QVQLVESGGGVVQPGRSLRLSCAASGFTFSSYGMHWVRQAPGKGLEWVAVIWDDGSNKYYVDSVKGRFTISRDNSKNTLYLQMNSLRAEDTAVYYCAHDDYYGSGSFNSYYGTDVWGQGTTVTVSS VL: EIVLTQSPATLSLSPGERATLSCRASQSVSIYLAWYQQKPGQAPRLLIYDASNRATGIPARFSGSGSGTDFTLTISSLEPEDFAVYYCQQRSNWPPFTFGPGTKVDIK	no binding (tested: 50 nM PTK7)
MYT6255 (antibody, V domains shown, IgG) VH: QVQLVESGGGVVQPGRSLRLSCAASGFTFSSYGMHWVRQAPGKGLEWVAVIWDDGSNKYYVDSVKGRFTISRDNSKNTLYLQMNSLRAEDTAVYYCARDHYYGSGSFNSYYGTDVWGQGTTVTVSS VL: EIVLTQSPATLSLSPGERATLSCRASQSVSIYLAWYQQKPGQAPRLLIYDASNRATGIPARFSGSGSGTDFTLTISSLEPEDFAVYYCQQRSNWPPFTFGPGTKVDIK	no binding (tested: 50 nM PTK7)
MYT6244 (antibody, V domains shown, IgG) VH: QVQLVESGGGVVQPGRSLRLSCAASGFTFSSYGMHWVRQAPGKGLEWVAVIWDDGSNKHYVDSVKGRFTISRDNSKNTLYLQMNSLRAEDTAVYYCARDDYYGSGSFNSYYGTDVWGQGTTVTVSS VL: EIVLTQSPATLSLSPGERATLSCRASQSVSIYLAWYQQKPGQAPRLLIYDASNRATGIPARFSGSGSGTDFTLTISSLEPEDFAVYYCQQRSNWPPFTFGPGTKVDIK	no binding (tested: 50 nM PTK7)
MYT6267 (antibody, V domains shown, IgG) VH: QVQLVESGGGVVQPGRSLRLSCAASGFTFSSYGMHWVRQAPGKGLEWVAVIWDDGSNKYYVDSVKGRFTISRDNSKNTLYLQMNSLRAEDTAVYYCARDDYYGSGSFNSYYHTDVWGQGTTVTVSS VL: EIVLTQSPATLSLSPGERATLSCRASQSVSIYLAWYQQKPGQAPRLLIYDASNRATGIPARFSGSGSGTDFTLTISSLEPEDFAVYYCQQRSNWPPFTFGPGTKVDIK	no binding (tested: 50 nM PTK7)
MYT6254 (antibody, V domains shown, IgG) VH: QVQLVESGGGVVQPGRSLRLSCAASGFTFSSYGMHWVRQAPGKGLEWVAVIWDDGSNKYYVDSVKGRFTISRDNSKNTLYLQMNSLRAEDTAVYYCARHDYYGSGSFNSYYGTDVWGQGTTVTVSS VL: EIVLTQSPATLSLSPGERATLSCRASQSVSIYLAWYQQKPGQAPRLLIYDASNRATGIPARFSGSGSGTDFTLTISSLEPEDFAVYYCQQRSNWPPFTFGPGTKVDIK	no binding (tested: 50 nM PTK7)
MYT6256 (antibody, V domains shown, IgG) VH: QVQLVESGGGVVQPGRSLRLSCAASGFTFSSYGMHWVRQAPGKGLEWVAVIWDDGSNKYYVDSVKGRFTISRDNSKNTLYLQMNSLRAEDTAVYYCARDDHYGSGSFNSYYGTDVWGQGTTVTVSS VL: EIVLTQSPATLSLSPGERATLSCRASQSVSIYLAWYQQKPGQAPRLLIYDASNRATGIPARFSGSGSGTDFTLTISSLEPEDFAVYYCQQRSNWPPFTFGPGTKVDIK	no binding (tested: 50 nM PTK7)
